assay: soluble on expression in E. coli; label from the status in PepcDB or PDB records

Soluble on expression in E. coli, not soluble:
MGSDKIHHHHHHMTPTIVFDGGYTLWSAGDDAPLAFMTDGLARRLGTPVFKAFVRHPHASFDRRFGVQTLPNLEHESKAGAAGRWFRGLNFTDPRGELAAVADTVAQADLLIMGAGNFITEVGMDVLRGHLPRFCTMALMAQMAGTPYMLFGLSANVLHNPWAVRAAGWLLRGAAAVTFRERMAVENLRACGVALPEHTLLPDAALGAPRAPQGRGDEILRQEQIPSRTAGLRLALAVRDLSWMGSHAAALYERHQTELINLWCARKDNDVLLVPQCCYHADSGITDDRVLGRTLRGRSRFSDKVHVIEGCYHYDDIESLYTQADCAVATRLHGSVFAARMGIPVVGLAYEDKVRGFFGQLQAEDQCLPWDAPATDILALLDSLMLRVQAVRDHMLHRIEQLQQQLAGYIDIAAALAAPAGDHTP
MGSDKIHHHHHHMTQAITMPDNPGADCIIEAGIVLTGLDAGSGLTGLGADGKMTMRHDVGIRVEKGMIAQIGPMEAVGYGNDHLPRFGSRRMIAMPGLVNAHHHFGVTPLMQGVPFAPLELWLPQFRAMRRIDQRLDTLYSAIEMLESGTTTVQHIHSGFSGTPDSWMQTAEATISAYGEIGMRLGYCFMIRDRNILSYEPDADILSRLPAKLRDWIAPQLAAADIPVPRLMEFYTDLRARFMKGSPQHIRMNLAPANLHWCSDNALQTIFETAKAAGGNVHMHLLETERQAEFARRTYGRSAVQHLQKLQCLDANVTLGHGNWMSGEDLDIIASCGCTICHNASSGLRLGSGIAPVNEMRRRGIPVALGIDQSNIADDRDMTLEMKLVWALHRETGLWNDRPDAGAVLQMASEHGAASAGFGGFTGRLEPGWQADIVLMDKDRIARPAINSRTPPVEALLHRGGRHAIEQVFVGGRLVVDGGRVTTVDRDAVMAEIEAILSRPETDAERYAWQAVETLLPHLESSLQQLGLGAGYRRYRYNSMSDQ
MGSDKIHHHHHHMTRAELYAVLDRFLAALDARDPTALDWAPGAHHSENNVMLEIGDGVWGTIDRLGDYRLRFADTRTRQVGYFGTVIEPIEESAFTLRLALDEAGRIAECEMLIVRQSDSGIKFENCRYWDKPILHREPEAPVSRQEMVRLSNGYFDTLQRNDGTIHTRFHPDCNRVENGVQTTRNPDFAKIVPVSALGCEEQFRMGNYRYDDDLRARRFPLVDEERGLVLAFGFIDHSGRLREFQLTDGRTVKSPVLRPHSFYISELFKIDHGMIEQIEANFITVPYRMPSPWDLL
MGSDKIHHHHHHMTSAYCTVLSKGRLYQAVALFKSLEQVDQDSPIFILCMDEDTHRVLQKLKMKQLNLVPVAALENELLLKLKETRDQSEYCWTMKPIFLQAVLNSNPELERVTYIDGDLFFYADPSPIFENQPDCSVLLSRGDIVIPSFEKEQIDMLQRLLGRYNSGFISFKHDDAGTDCLEWWKERCLEECKNAPGEGKFGDQGYLDYMSELFPNVCDITTPGVNIGHWNYGQHTFSWKDGRIVLEDGSPLIFYHFSGYRIVSINEIKQIHETTRTDLPFVHELYQETLPHIIQHMQTLDPEFNGFASKDDNK
MGSDKIHHHHHHMTSEKGIIFNIQHFSIHDGPGIRTTVFLKGCPLRCPWCSNPESQKYKPEQMLDAETKLPMIIGEEKTVEDIISEVKKDIDFYEESGGGLTLSGGEIFAQFEFAKAILKCAKEEGLHTAIETTAFAEHEKFTDLIQYVDFIYTDLKHYNTIRHRKVTGVNNNFIIQNIHYAFTHKKTIVLRIPVIPDFNNSLDDAEHFAKLFNDIQVDKVQLLPFHQFGENKYKFLNRKYEMSGYTALHPEDLYDYQSVFLEHGIDCYF
MGSDKIHHHHHHMTSRSPFESFVWQSEIFNCQSNDIDAFYAQLAEEVNRLGLKKNTLGSVDSFAINLYQSASQRSDLPSLLISSGFHGEEAAGPWGMLHFLRGLQPALFERVNLSLLPLVNPTGFKAGHRFNRFGENPNRGFTLENGKPTPNEHTSLEGKLLLEHAQLLCAASRDGILTCHEDVLMNETYVYSFEPTQTPGRFSLGLRDALGQYFKLAKDGFIDECPVTDGVIFNHFDTSFEAFLVRSGAKLAACSETPGQEDFDRRVQANSAAMGQFIAHCAPIL
MGSDKIHHHHHHMTTINAANAGTYAFDDQFKVNRMGYGVMQLTGPGTWGPYADPENGVKVVKKALEYGVNFFDTADSYGPWFADRYLAAGLKDAANRDQIFISDKVGQTRQGPNVWTPLGEPRYLRQQVEVSMMTLGIDHEDLVFLHRIDPHYSIADQVGELKKLQDEGKIKHIGLSQVTVDQIKEAQQVAKIDAIENLYNVANHGDDDVVDYAASQKMAFLPWFPLATGELAQAGSVLSTMAQKYQVSPAQIALAWLLKRSDNIIPIPGTSSIEHLRDNVAAANVDLTTADFNGLSQLSVK
MGSDKIHHHHHHMTTPRRALIVIDVQNEYVTGDLPIEYPDVQSSLANIARAMDAARAAGVPVVIVQNFAPAGSPLFARGSNGAELHPVVSERARDHYVEKSLPSAFTGTDLAGWLAARQIDTLTVTGYMTHNCDASTINHAVHSGLAVEFLHDATGSVPYENSAGFASAEEIHRVFSVVLQSRFAAVASTDEWIAAVQGGTPLARGNIYASNQKARARRATA
MGSDKIHHHHHHMTTSIDTLSAFVYAADLGSFSAAARRLGKSQSTISEAIANLEIDLGSSLFDRGTRAPTLTPAGRLLLPQARQIMAASQDLRRQAAQLNAGVETRLTIVLSDTFQSRTLESVACRLEERYPLLELECLVGEQEDVLDLILSGRAQLGLVGAMDSYPPDVRHQRQREASELALYAAHRHPLAGMDRIDEQQLDQHRQLRLNTYSDKTPADSGQRQWYAPSYLMLLDMARLGVGWAELPCWLVHSFGGGELKQLDVAGWPKRMPVDLVWAANKPLGAAAGWLLQQLTDGAEQR
MGSDKIHHHHHHMTTTNGIDGSYYYENRPKEQSNSGILGKDDFLRILIAQLQYQDPLNPMDDREFIAQMAQFSSLEQMTNMNSAIQQFVKQQTSQTLVQHSELIGKRVTWKRIIDIDEYRQKEELVENTVTSVRLETNGNVSIQLDSGRWISADQLVQVSGKTNHQEEAEGDVGDNAPDEQEG
MGSDKIHHHHHHMTTWVLLRGLMRDQRHWNGFDQRLRQKGLRVLTPDLPGNGTLSTEASPLKIADYAHAVWLQLDEQVQEGETIYLLGLSMGGMLALEMARQRPWLIRHVFVLNSSAANLSAWYQRFNPLNALKAFFLRARGKALHPIESTIVRLTSFRHRLDCGLIAEWSEFRRQSSPTIRNAWRQLWAAFQYQCPLTVEVPISVLCGDRDALVSMASSKALALHFHTDLIVLAYCGHDAAIDAPAKLAHYLLAIVAPTKLQAEVQEDDEPAHAQYAHTQYSCNDLLEEEMAFNEAIFSVWDEKALSTLHSKSSAMNSAKTVNS
MGSDKIHHHHHHMTVEYTASDLATYQNEVNEQIAKNKAHLESLTHPGSKVTFPIDQDISATPQNPNLKVFFFDIDNCLYKSSTRIHDLMQQSILRFFQTHLKLSPEDAHVLNNSYYKEYGLAIRGLVMFHKVNALEYNRLVDDSLPLQDILKPDIPLRNMLLRLRQSGKIDKLWLFTNAYKNHAIRCLRLLGIADLFDGLTYCDYSRTDTLVCKPHVKAFEKAMKESGLARYENAYFIDDSGKNIETGIKLGMKTCIHLVENEVNEILGQTPEGAIVISDILELPHVVSDLF
MGSDKIHHHHHHMTVFILNGEEPNQEGVRYVAKLLKREKLVEDIHFSTIDEIPLDNSYVLGDHSGTYFILKKIKPNALISLDAHTDLMQDYFDHASWLAYALKDNIIKRASVIGAVLMIPTTSGTKLWKRGVKVFPALPRTKKIRGKWKAYTNLEQHGVERVLKETREFLGKEIYLSIDLDVLSPEYRIARFQHGELTLRELLDIIEAIKKNFKIIAFDVAEISFRVAKSKYGRRAIIEVFSSLKEVFE
MGSDKIHHHHHHMVAMQSYPYVITVSSEKGGVGKTTLATNLAIYLKALDENLPVSIFSFDNHFTVDRMFEIRGQRTTGTVADLLLETPGRDLIHTGQYGVGYIPSSPNLSDLKGTVKTPMMLARLLALSRIPGVVVIDTRPDLDILTQNALFAADRAIIPVKDMPSLENCRNIFALFEQRGLDRKSLSLIPCLVDERIKFDGPFSDQKTLLKAYAINRGYRCFETYISKSPKVESLNTNPDGKIYPILTHAKWTEVHGQFAQLAQTIITEFRATAEPRAFLFHQWLQSEEVRKKEAFFARLSGIKSECLLCGRPVSGKDSDRVSFYFEVSDGSAAGFFEEECFFRLLMTNVYNLDINLADDDPTLQIMRDAARESAFVFRPVTNGSGTTVDFHRFGLDGVHLLKKAYPLREFEGGMLTREKSRLFSLLSETFGNRLDASPDSFLLVHPVHQEKPEAILQEECYRGFARLRQRIAQQVLPPN
MGSDKIHHHHHHMVDEILKLKKEKGYIILAHNYQIPELQDIADFVGDSLQLARKAMELSEKKILFLGVDFMAELVKILNPDKKVIVPDRSATCPMANRLTPEIIREYREKFPDAPVVLYVNSTSECKTLADVICTSANAVEVVKKLDSSVVIFGPDRNLGEYVAEKTGKKVITIPENGHCPVHQFNAESIDAVRKKYPDAKVIVHPECPKPVRDKADYVGSTGQMEKIPEKDPSRIFVIGTEIGMIHKLKKKFPDREFVPLEMAVCVNMKKNTLENTLHALQTESFEVILPKEVIEKAKKPILRMFELMG
MGSDKIHHHHHHMVDNPGNLNSFRALALQVTCHAVNQASDRQEAGLMMHNTINRLAQQIAASIAFIGFDCRLIVLPEYFLTGFPMGEPLQVWADKACLEINGAEYEALGMIAQKQQIFLAGNAYELDPNFPGLYFQTCFVIDPSGSVVLRYRRLNSLFAPTPHDVWDKYLDCYGLEGVFPVAKTAIGNLAALASEEILYPEVARCLAMRGAEIFLHSTSEVYSKNLTPKDAAKITRAVENMAYVVSANSAGLANSAIPIGSVDGGSKIIDHRGIILAETGPGESMAAFAEIDLAALRRDRTRPGLNNLLSRQRFEMYAQSYSQAKFYPANTMLNKEIERKHFIQTQQETIERLTRLGII
MGSDKIHHHHHHMVEELLGKALARKRSLRKDETIDVFNRVTYFFPKDFVITNYPRNPVAVFNPGAVLVGKALHVFPRLIFDYYKYVSSIGHFIVNIDDLLNGEVKKPLEMEVVFWPRDIQEFLGCEDPRVFFRNSRFELLYTAKGYKDWSQEGKPHTDFLAYAVLDEDLNLIEKRYISIKSTLGEYVPVSMKDSSFVESKVILTRLTVGDAKVCWRGRLEGSYIDLYSLDPVFFPEEWETKVGWSTNTVEVKEGYLVGWHAVLKDLTYKNGLALVDGRGRLLGTTNYVLSPKGVIEEYGDRIRVIFGCGLVVYGGRVIWIGGVSDWAIGVFETSEREIMNLMKEAT
MGSDKIHHHHHHMVELKAPLTTLWRGKDAFEEVKTLQGEVFRELETRRTLRFELDGKSYFLKWHKGTSLKEIVKNLISLRMPVLGADREWHAIHRLHELGVDTMHGVGFGEKGVNPLTRTSFIITEDLTPTISLEDYCADWAVNPPDAQVKWMIIKRVATMVRKMHAGGINHRDCYICHFLLHLPFTGREEDLKISVIDLHRAQIRQHVPLRWRDKDLIGLYFSSMNIGLTQRDIFRFMREYFSLPLREILQKESGLIHQADVKAARIKERTIRKNL
MGSDKIHHHHHHMVELQRVTASSLQQSFAGDVYNTGVYLKRTFSDINTHLVTAIGQDSFSQAMLQRFEDEKINTDMVFQSTDKIAGLYAIQTDSKGERSFTYWRNDSAAKQIMQFIGDAAISKISQADMVFFSGISLAVINEEDRDAFWLLIKQCKQAGVSIVFDPNYRARMWHSPDQAKAQFDIAFSVADVVLPGVDDFNQLYGISSVEDIIAFCQPYDINELVIKNGENGINYVINGQQQHFSITPVTNVVDTTSAGDSFNGVYLGARLTGADISTAIKLASQAAGFVIQHKGAIAPKIEFHQFIERQKLIMQ

From the DeepSol protein solubility set
